Reference: patent US20260028422A1 (CONCEPT TO MEDICINE BIOTECH, published 2026)
Substitutions are numbered along the chain they refer to.

T1: human MerTK-his protein (human, UniProt Q12866 21-505)
T1 construct: extracellular domain; also called hMerTK-His; human MerTK protein
T1 sequence (looked up): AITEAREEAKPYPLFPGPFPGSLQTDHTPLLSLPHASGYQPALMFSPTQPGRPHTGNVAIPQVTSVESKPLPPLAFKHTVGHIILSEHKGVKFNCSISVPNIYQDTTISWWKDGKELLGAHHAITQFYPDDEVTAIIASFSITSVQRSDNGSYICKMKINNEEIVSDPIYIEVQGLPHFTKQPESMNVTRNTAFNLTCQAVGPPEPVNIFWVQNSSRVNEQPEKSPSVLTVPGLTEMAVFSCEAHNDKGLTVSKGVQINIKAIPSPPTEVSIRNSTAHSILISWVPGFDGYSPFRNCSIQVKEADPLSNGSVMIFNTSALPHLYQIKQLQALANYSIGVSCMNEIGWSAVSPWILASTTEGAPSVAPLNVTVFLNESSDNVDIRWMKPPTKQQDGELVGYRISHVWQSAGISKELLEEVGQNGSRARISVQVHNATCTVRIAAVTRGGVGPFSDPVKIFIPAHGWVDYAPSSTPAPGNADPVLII

T2: human MerTK expressed on cells (human, UniProt Q12866 21-999)
T2 construct: whole, on cells; also called CHO-K1-hMerTK; CHO-K1-MerTK
T2 sequence (looked up): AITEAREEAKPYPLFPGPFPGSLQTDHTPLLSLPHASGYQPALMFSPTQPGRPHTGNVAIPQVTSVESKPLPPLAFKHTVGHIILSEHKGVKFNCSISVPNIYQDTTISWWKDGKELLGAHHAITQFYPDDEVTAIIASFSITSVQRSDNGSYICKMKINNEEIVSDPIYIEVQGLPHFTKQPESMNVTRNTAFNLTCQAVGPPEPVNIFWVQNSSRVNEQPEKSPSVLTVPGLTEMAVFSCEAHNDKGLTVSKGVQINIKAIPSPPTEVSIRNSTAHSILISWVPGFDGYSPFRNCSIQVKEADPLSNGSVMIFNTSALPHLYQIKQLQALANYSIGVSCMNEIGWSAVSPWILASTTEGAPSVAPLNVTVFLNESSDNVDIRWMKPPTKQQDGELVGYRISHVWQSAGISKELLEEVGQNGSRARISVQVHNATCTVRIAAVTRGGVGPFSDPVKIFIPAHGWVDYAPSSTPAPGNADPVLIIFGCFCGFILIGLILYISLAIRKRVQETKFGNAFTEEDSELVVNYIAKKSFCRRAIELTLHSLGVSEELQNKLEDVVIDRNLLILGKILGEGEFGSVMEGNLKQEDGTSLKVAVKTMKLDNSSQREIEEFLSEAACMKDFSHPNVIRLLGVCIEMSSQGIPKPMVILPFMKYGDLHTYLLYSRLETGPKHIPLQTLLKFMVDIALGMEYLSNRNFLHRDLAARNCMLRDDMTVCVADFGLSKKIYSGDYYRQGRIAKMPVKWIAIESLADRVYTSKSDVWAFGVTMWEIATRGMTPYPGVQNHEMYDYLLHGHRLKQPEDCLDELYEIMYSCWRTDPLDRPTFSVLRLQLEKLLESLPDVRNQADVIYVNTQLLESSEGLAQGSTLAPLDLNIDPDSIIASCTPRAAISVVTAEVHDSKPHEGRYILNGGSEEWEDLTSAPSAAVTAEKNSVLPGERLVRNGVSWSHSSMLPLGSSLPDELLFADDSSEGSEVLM

T3: cyno MerTK-his protein (cynomolgus, UniProt A0A2K5V1H9 27-505)
T3 construct: also called cyno MerTK protein; Cynomolgus
T3 sequence: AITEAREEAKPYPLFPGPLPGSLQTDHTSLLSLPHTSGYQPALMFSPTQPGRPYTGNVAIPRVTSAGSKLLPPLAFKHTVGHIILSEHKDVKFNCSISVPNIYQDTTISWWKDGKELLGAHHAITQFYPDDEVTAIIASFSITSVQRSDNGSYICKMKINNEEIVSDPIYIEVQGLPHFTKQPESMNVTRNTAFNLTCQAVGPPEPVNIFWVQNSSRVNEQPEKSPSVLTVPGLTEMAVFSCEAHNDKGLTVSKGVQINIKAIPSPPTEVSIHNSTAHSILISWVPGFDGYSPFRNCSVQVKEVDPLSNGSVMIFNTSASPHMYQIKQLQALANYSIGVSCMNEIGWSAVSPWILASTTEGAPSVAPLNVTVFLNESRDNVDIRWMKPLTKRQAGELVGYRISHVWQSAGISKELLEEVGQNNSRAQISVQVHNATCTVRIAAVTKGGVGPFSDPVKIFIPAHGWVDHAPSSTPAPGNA

B1: 10F7D9 chimeric monoclonal antibody (antibody, V domains shown)
VH: QIQLVQSGPELKKPGETVKISCKASGYTFTNYGMNWVKQAPGKGLKWMGWINTYTGEPTYADDFKGRFAFSLETSASTAYLQINNLKNEDLATYFCATYGHYAWFAYWGQGTLVTVSA
VL: QIVLSQSPAILSASPGEKVTMTCRASSSVSYMHWYQQKSGSSPKPWIYATSNLASGVPARFSGSGSGTSYSLTISRVEAEDAATYFCQQWGTKPLTFGAGTKLELK
B2: 276C2D1 chimeric monoclonal antibody (antibody, V domains shown)
VH: QVQLQQSGPELVKPGASVKLSCKASGYTFTSYDINWVKQRPGLGLEWIGWIYPRDGYTKYNEKFKGKATLAVDTSSSTAYMELHSLTSEDSAVYFCARGYYSNLYYFDYWGQGTTLTVSS
VL: EVVLTQSPPTMAASPGEKITITCSASSSISSNYLHWYQQKPGFSPKLLIYRTSNLASGVPARFSGSGSGTSYSLTIGTMEAEDVATYYCQQGRSIPLTFGAGTKLELK
B3: 265F11B5 chimeric monoclonal antibody (antibody, V domains shown)
VH: B2 VH with K19R, S31T, K67R, A97T, S102D
VL: B2 VL with V2I, P9T, M11V, S28I, L34F, K40R, I95V
B4: 293C2B7 chimeric monoclonal antibody (antibody, V domains shown)
VH: B2 VH with L43Q, N61K, A71T, Y100F
VL: B2 VL with V2I, P9T, A13T, A61D
B5: 300A5A3 chimeric monoclonal antibody (antibody, V domains shown)
VH: B2 VH with S31T, Y80S, S102D, Y109N, Q112P
VL: B2 VL with V2N, P9T, M11V, S28I, V84A, I95V
B6: 254B4D9 chimeric monoclonal antibody (antibody, V domains shown)
VH: QIQLVQSGPELKKPGETVKISCKASGYTFTAYGMSWVKQAPGKGLQWMGWINTYSGVPTYTDDFKGRFAFSLEASASTAFLQINNLKNEDTSTYFCARRAAVVAKYWYFDVWGTGTTVTVSS
VL: DIQMTQSPSSLFASLGGKVIITCKSSQDINKRISWYQHKPGKGPRLLIHSTSSLQPGIPLRFSGSGSGRDYSFSISNLEPEDIATYFCLQYDNLLTFGAGTKLELK
B7: 85H8D5 chimeric monoclonal antibody (antibody, V domains shown)
VH: QIQLVQSGPELKKPGETVKISCMASGYTFTTHGVTWVKQAPGQGLQRMGWINTYSGVPTYADDFKGRFVFSLETSANTAHLQINNLKNEDTATYFCARTNNYRYFDVWGTGTTVTVSS
VL: B1 VL with A13S, S39P, S71F, F86Y, G91N, K93D, L95P, A99G, L105I
B8: 216G3D6 chimeric monoclonal antibody (antibody, V domains shown)
VH: QVTLKESGPGILQPSQTLSLTCSFSGFSLSTSGMGVGWIRQPSGKGLEWLAHIWWDDDKHCNPALKSRLTISKDTSSNQVFLKIASLDTADTATYYCTQMTMTREFAYWGQGTLVTVSA
VL: DIQMTQTISSLSASLGDRVTISCSAGQGISNYLNWYQQKPDGTVKLLIYYTSRLHSGVPSRFSGSGSGTDFSLTISNLEPEDIATYFCQQYSKFPYTFGGGTKLEIK
B9: 247E5A8 chimeric monoclonal antibody (antibody, V domains shown)
VH: DVQLQESGPGLVKPSQSLSLTCSVTGYSITGGYYWTWIRQFPGNKLEWMGYISYDGDNNYNPSLKNRISITRDTSKNQFFLNLNSVTTEDTATYYCAREGGRLRTMDYWGQGTSVTVSS
VL: QIVLTQSPAIMSASPGEKVTITCRASSSVNYMHWFQQKPGTSPKLWIYTTSNLASGVPARFSGSGSGTSYSLTISRMEAEDAATYYCQQRSSYPFTFGSGTKLEIK
B10: 252C12B10 chimeric monoclonal antibody (antibody, V domains shown)
VH: QVQLQQPGTELVKPGASVKLSCKTSGYTFTSYWMHWMKQRPGQGLEWLGHINPSTGGSNYNEKFKSKATLTVDKSSNTAYMQLSSLTSEDSAVYYCARPRGFYGYSYWYFDVWGSGTTVTVSS
VL: DIQMTQTTSSLSASLGDRVTISCSASQDINNYLNWYQHKPDGTIKVLIYFTSSLHSGVPSRFSGSGSGTEYSLTISNLEPEDIATYYCQQYSKLPPTFGSGTKLEIK
B11: 252H9D5 chimeric monoclonal antibody (antibody, V domains shown)
VH: QVTLRESGPGILQPSQTLSLTCSFSGFSLNTFGMGVGWIRQSSGKGLKWLAHIWWDDDKFYNPALKSRLTISKDTSKNQVFLKIANVDTTDTATYYCARIEGGLPYYYDYWGQGTPLIVSS
VL: DIVMTQSQKIMSTSVGDRISVTCKASQIVGTNVVWYQQKPGQSPKALIYSTSYRYSGVPDRFTGSRSGTDFTLTISNVQSEDLANYFCQQYNSYPFTFGSGTKLEIK
B12: h13B4.v16 benchmark antibody (antibody, V domains shown)
VH: EVQLVESGEGLVQPGGSLRLSCAASGFSLSSYAMGWVRQAPGKGLEYVGIINSYGNTYYANWAKGRFTISRDNSKNTVYLQMGSLRAEDMAVYYCARDPGVSSNLWGRGTLVTVSS
VL: DIQMTQSPSTLSASVGDRVTITCQASQNIYSGLAWYQQKPGKAPKLLIYGASKLASGVPSRFSGSGSGTEFTLTISSLQPDDFATYYCQATYYSSNSVAFGGGTKVEIK

Each binder was assayed against T1, human MerTK-his protein (assay: ELISA, coated human MerTK-his).
Protocol: (§1) To evaluate the binding activity, the chimeric mAbs were subjected to ELISA test. Briefly, 96-well plates were coated with human or cyno MerTK-his protein at 2 μg/mL in PBS, 100 μL/well at 4° C. overnight, then blocked with 150 μL/well of 1% BSA. Five-fold dilutions of MerTK antibodies starting from 20 nM were added to each well and incubated for 1 hour at room temperature. The plates were washed with PBS/Tween-20 and then incubated with goat anti-human IgG Fe antibody conjugated with Horse Radish Peroxidase (HRP) for 30 minutes (mins) at room temperature. After washing, the plates were developed with TMB substrate and subsequent stop solution was added to complete the reaction. The signal from each well was read by spectrophotometer at OD 450 nm.
B1 was tested, and the EC50 was 0.027 nM. B2 gave an EC50 of 0.019 nM. For B3, the EC50 was 0.0097 nM. B4 showed an EC50 of 0.017 nM. For B5, the EC50 was 0.024 nM. B6 showed an EC50 of 0.047 nM. For B7, the EC50 was 0.025 nM. For B8, the EC50 was 0.046 nM. B9 showed an EC50 of 0.032 nM. B10 gave an EC50 of 0.039 nM. With B11 the EC50 was 0.052 nM.

Each binder was assayed against T2, human MerTK expressed on cells (assay: FACS on CHO-K1 cells overexpressing human MerTK, MFI (PE)).
Protocol: (§2) To evaluate the binding property to the antigen expressed on the cells, the chimeric monoclonal antibodies were analyzed for their binding to human MerTK overexpressed on CHO-K1 cells by FACS. Briefly, human MerTK overexpressing CHO-K1 (CHO-K1-MerTK) cells were firstly incubated with 5-fold serially diluted mAbs starting at 20 nM at 4° C. for 1 hour. After washing with FACS buffer, the PE conjugated anti-human IgG-Fc secondary antibody was added to each well and incubated at 4° C., for 30 mins. The mean fluorescence intensity (MFI) of PE were evaluated by QuantAnalyzer 16.
In the case of B12, the EC50 is reported as 0.16 nM and the Top is reported as 4950 MFI (PE). With B2 the EC50 was 0.04 nM and the Top was 7750 MFI (PE). B3 was tested, and the EC50 was 0.061 nM and the Top was 9460 MFI (PE). For B4, the EC50 was 0.064 nM and the Top was 7700 MFI (PE). For B5, the EC50 was 0.076 nM and the Top was 8350 MFI (PE). For B6, the EC50 was 0.19 nM and the Top was 5630 MFI (PE).

What follows are binders tested against T3, cyno MerTK-his protein (assay: ELISA, coated cyno MerTK-his).
Protocol: as §1
Work on B1 yielded an EC50 of 0.024 nM. In the case of B2, the EC50 is reported as 0.02 nM. Binder B3 has an EC50 of 0.017 nM. B4 was tested, and the EC50 was 0.02 nM. In the case of B5, the EC50 is reported as 0.026 nM. With B6 the EC50 was 0.056 nM. In the case of B7, the EC50 is reported as 0.024 nM. In the case of B8, the EC50 is reported as 0.047 nM. In the case of B9, the EC50 is reported as 0.037 nM. B10 gave an EC50 of 0.04 nM. B11 was tested, and the EC50 was 0.15 nM.

Molecular target: T2, human MerTK expressed on cells
Assay: FACS on CHO-K1 cells overexpressing human MerTK, MFI (PE)
Remark: another data set of the same source
Protocol: as §2
For B12, the EC50 was 0.17 nM and the Top was 5920 MFI (PE). For B1, the EC50 was 0.04 nM and the Top was 10800 MFI (PE). In the case of B7, the EC50 is reported as 0.054 nM and the Top is reported as 10500 MFI (PE). With B8 the EC50 was 0.17 nM and the Top was 11000 MFI (PE). For B9, the EC50 was 0.12 nM and the Top was 10800 MFI (PE). In the case of B10, the EC50 is reported as 0.063 nM and the Top is reported as 6040 MFI (PE). With B11 the EC50 was 0.12 nM and the Top was 7290 MFI (PE).
